Assay results reported in publication PMC8978939, “VHL-P138R and VHL-L163R Novel Variants: Mechanisms of VHL Pathogenicity Involving HIF-Dependent and HIF-Independent Actions” (Frontiers in Endocrinology, 2022).

Tests used:
VHL-L163R-Venus = biological target: T1, VHL-L163R-Venus (human, UniProt P40337 1-213, L163R); assay: co-IP; GFP-Trap_A kit on 1 mg protein from 786-0 cell lines stably expressing VHL-Venus (WT, P138R, L163R) or GFP; Western blot for Elongin B and Elongin C; band ratios Elongin/pVHL normalised to WT set as 1; details: partners not purified
T1 construct: von Hippel-Lindau protein (pVHL), human, patient variant L163R (CTC to CGC) made by site-directed mutagenesis of VHL-WT-Venus-Retro; Variant found in patients with VHL disease (type 2C); also called L163R VHL-Venus; L163R pVHL
T1 sequence (P40337 whole entry L163R): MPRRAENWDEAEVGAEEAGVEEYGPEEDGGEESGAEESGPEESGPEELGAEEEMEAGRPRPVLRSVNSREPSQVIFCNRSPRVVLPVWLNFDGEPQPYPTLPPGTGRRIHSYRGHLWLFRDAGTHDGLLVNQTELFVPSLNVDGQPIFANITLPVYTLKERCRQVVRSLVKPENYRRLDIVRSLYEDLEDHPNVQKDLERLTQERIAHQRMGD

VHL-P138R-Venus = biological target: T2, VHL-P138R-Venus (human, UniProt P40337 1-213, P138R); assay: as above; details: partners not purified
T2 construct: von Hippel-Lindau protein (pVHL), human, patient variant P138R (CCA to CGA) made by site-directed mutagenesis of VHL-WT-Venus-Retro; Variant found in patients with VHL disease (type 2B); also called P138R VHL-Venus; P138R pVHL
T2 sequence (P40337 whole entry P138R): as the sequence (P40337 whole entry L163R) above, with P138R, R163L counted along it

ratio Elongin B/pVHL, normalised to WT pVHL set as 1 (VHL-L163R-Venus): 0.25
ratio Elongin B/pVHL, normalised to WT pVHL set as 1 (VHL-P138R-Venus): ~0.6
B1: Elongin B (natural protein, human (endogenous in 786-0), UniProt Q15370 1-118, looked up)
chain: MDVFLMIRRHKTTIFTDAKESSTVFELKRIVEGILKRPPDEQRLYKDDQLLDDGKTLGECGFTSQTARPQAPATVGLAFRADDTFEALCIEPFSSPPELPDVMKPQDSGSSANEQAVQ
notes: also called EloB; source: endogenous, 786-0 RCC cell lysate
